Results from the supplement of paper PMC10567573.

B1: ZNF263 (parent)
chain: KPYKCTLCGENFSHRSNLIRHQRI

Variants of: B1
Experiment: protein stability index of a GFP-peptide fusion (GPS, HEK-293T) (PSI 1-6); higher = more stable
Conditions: c terminus: a fixed tail appended
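Note: lentivirally expressed fusions sorted by FACS into six bins by GFP to DsRed ratio, PSI derived from sequencing read proportions per bin multiplied by bin number.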

| Variant | protein stability index |
| --- | --- |
| KPYKCTLPGENFSHRSNLIRHQRI [C8P] | 2.45 |
| KPYKCTLCTENFSHRSNLIRHQRI [G9T] | 1.39 |
| KPYKCTLCLENFSHRSNLIRHQRI [G9L] | 1.16 |
| KPYKCTLCQENFSHRSNLIRHQRI [G9Q] | 2.79 |
| KPYKCTLCAENFSHRSNLIRHQRI [G9A] | 2.19 |
| KPYKCTLCIENFSHRSNLIRHQRI [G9I] | 4 |
| KPYKCTLCFENFSHRSNLIRHQRI [G9F] | 2.43 |
| KPYKCTLCVENFSHRSNLIRHQRI [G9V] | 2.14 |
| KPYKCTLCHENFSHRSNLIRHQRI [G9H] | 1.81 |
| KPYKCTLCMENFSHRSNLIRHQRI [G9M] | 2.38 |
| KPYKCTLCPENFSHRSNLIRHQRI [G9P] | 1.67 |
| KPYKCTLCYENFSHRSNLIRHQRI [G9Y] | 2.61 |
| KPYKCTLCCENFSHRSNLIRHQRI [G9C] | 2.16 |
| KPYKCTLCNENFSHRSNLIRHQRI [G9N] | 2.36 |
| KPYKCTLCKENFSHRSNLIRHQRI [G9K] | 2.05 |
| KPYKCTLCDENFSHRSNLIRHQRI [G9D] | 2.01 |
| KPYKCTLCSENFSHRSNLIRHQRI [G9S] | 2.38 |
| KPYKCTLCEENFSHRSNLIRHQRI [G9E] | 2.29 |
| KPYKCTLCWENFSHRSNLIRHQRI [G9W] | 1.62 |
| KPYKCTLCRENFSHRSNLIRHQRI [G9R] | 2.5 |
| KPYKYTLCGENFSHRSNLIRHQRI [C5Y] | 1.96 |
| KPYKCRLCGENFSHRSNLIRHQRI [T6R] | 2.96 |
| KPYKCKLCGENFSHRSNLIRHQRI [T6K] | 2.69 |
| KPYKCVLCGENFSHRSNLIRHQRI [T6V] | 2.07 |

| Variant | protein stability index |
| --- | --- |
| KPYKCNLCGENFSHRSNLIRHQRI [T6N] | 2.6 |
| KPYKCWLCGENFSHRSNLIRHQRI [T6W] | 2.53 |
| KPYKCQLCGENFSHRSNLIRHQRI [T6Q] | 2.21 |
| KPYKCGLCGENFSHRSNLIRHQRI [T6G] | 2.67 |
| KPYKCALCGENFSHRSNLIRHQRI [T6A] | 2.43 |
| KPYKCCLCGENFSHRSNLIRHQRI [T6C] | 2.1 |
| KPYKCLLCGENFSHRSNLIRHQRI [T6L] | 2.21 |
| KPYKCMLCGENFSHRSNLIRHQRI [T6M] | 2.08 |
| KPYKCPLCGENFSHRSNLIRHQRI [T6P] | 2.42 |
| KPYKCILCGENFSHRSNLIRHQRI [T6I] | 2.38 |
| KPYKCHLCGENFSHRSNLIRHQRI [T6H] | 3.1 |
| KPYKCELCGENFSHRSNLIRHQRI [T6E] | 2.9 |
| KPYKCYLCGENFSHRSNLIRHQRI [T6Y] | 1.98 |
| KPYKCDLCGENFSHRSNLIRHQRI [T6D] | 2.7 |
| KPYKCSLCGENFSHRSNLIRHQRI [T6S] | 3.17 |
| KPYKCFLCGENFSHRSNLIRHQRI [T6F] | 2.61 |
| KPYKCTLCGENFRHRSNLIRHQRI [S13R] | 3.45 |
| KPYKCTLCGENFAHRSNLIRHQRI [S13A] | 2.87 |
| KPYKCTLCGENFWHRSNLIRHQRI [S13W] | 2.53 |
| KPYKCTLCGENFHHRSNLIRHQRI [S13H] | 2.38 |
| KPYKCTLCGENFQHRSNLIRHQRI [S13Q] | 2.84 |
| KPYKCTLCGENFYHRSNLIRHQRI [S13Y] | 2.89 |
| KPYKCTLCGENFFHRSNLIRHQRI [S13F] | 2.26 |
| KPYKCTLCGENFMHRSNLIRHQRI [S13M] | 2.52 |

| Variant | protein stability index |
| --- | --- |
| KPYKCTLCGENFTHRSNLIRHQRI [S13T] | 2.13 |
| KPYKCTLCGENFKHRSNLIRHQRI [S13K] | 2.38 |
| KPYKCTLCGENFPHRSNLIRHQRI [S13P] | 2.45 |
| KPYKCTLCGENFLHRSNLIRHQRI [S13L] | 2.32 |
| KPYKCTLCGENFDHRSNLIRHQRI [S13D] | 2.12 |
| KPYKCTLCGENFCHRSNLIRHQRI [S13C] | 2.4 |
| KPYKCTLCGENFNHRSNLIRHQRI [S13N] | 2.35 |
| KPYKCTLCGENFGHRSNLIRHQRI [S13G] | 2.59 |
| KPYKCTLCGENFEHRSNLIRHQRI [S13E] | 2.52 |
| KPYKCTLCGENFIHRSNLIRHQRI [S13I] | 2.67 |
| KPYKCTLCGENFVHRSNLIRHQRI [S13V] | 2.39 |
| KPYKCTLCGENFSHASNLIRHQRI [R15A] | 2.87 |
| KPYKCTLCGENFSHHSNLIRHQRI [R15H] | 2.15 |
| KPYKCTLCGENFSHLSNLIRHQRI [R15L] | 2.45 |
| KPYKCTLCGENFSHESNLIRHQRI [R15E] | 2.69 |
| KPYKCTLCGENFSHKSNLIRHQRI [R15K] | 2.28 |
| KPYKCTLCGENFSHNSNLIRHQRI [R15N] | 2.1 |
| KPYKCTLCGENFSHMSNLIRHQRI [R15M] | 2.85 |
| KPYKCTLCGENFSHPSNLIRHQRI [R15P] | 2.52 |
| KPYKCTLCGENFSHISNLIRHQRI [R15I] | 2.73 |
| KPYKCTLCGENFSHTSNLIRHQRI [R15T] | 1.59 |
| KPYKCTLCGENFSHSSNLIRHQRI [R15S] | 1.38 |
| KPYKCTLCGENFSHFSNLIRHQRI [R15F] | 2.96 |
| KPYKCTLCGENFSHDSNLIRHQRI [R15D] | 1.55 |

| Variant | protein stability index |
| --- | --- |
| KPYKCTLCGENFSHCSNLIRHQRI [R15C] | 2.34 |
| KPYKCTLCGENFSHQSNLIRHQRI [R15Q] | 2.43 |
| KPYKCTLCGENFSHGSNLIRHQRI [R15G] | 2.08 |
| KPYKCTLCGENISHRSNLIRHQRI [F12I] | 2.41 |
| KPYKCTLCGENHSHRSNLIRHQRI [F12H] | 2.65 |
| KPYKCTLCGENRSHRSNLIRHQRI [F12R] | 1.54 |
| KPYKCTLCGENNSHRSNLIRHQRI [F12N] | 1.96 |
| KPYKCTLCGENQSHRSNLIRHQRI [F12Q] | 2.18 |
| KPYKCTLCGENCSHRSNLIRHQRI [F12C] | 2.71 |
| KPYKCTLCGENYSHRSNLIRHQRI [F12Y] | 1.44 |
| KPYKCTLCGENVSHRSNLIRHQRI [F12V] | 3.52 |
| KPYKCTLCGENSSHRSNLIRHQRI [F12S] | 1.99 |
| KPYKCTLCGENDSHRSNLIRHQRI [F12D] | 1.28 |
| KPYKCTLCGENESHRSNLIRHQRI [F12E] | 1.93 |
| KPYKCTLCGENGSHRSNLIRHQRI [F12G] | 1.8 |
| KPYKCTLCGENTSHRSNLIRHQRI [F12T] | 1.66 |
| KPYKCTLCGENWSHRSNLIRHQRI [F12W] | 2.12 |
| KPYKCTLCGENPSHRSNLIRHQRI [F12P] | 1.57 |
| KPYKCTLCGENLSHRSNLIRHQRI [F12L] | 2.1 |
| KPYKCTLCGENKSHRSNLIRHQRI [F12K] | 1.58 |
| KPYKCTLCGENMSHRSNLIRHQRI [F12M] | 2.01 |
| KPYKCTLCGENASHRSNLIRHQRI [F12A] | 1.97 |
